Article PMC7266990 (2020)

Biological target: A. fumigatus wt CBC consisting of the HapB^230–299, HapC^40–137, and HapE^47–164 subunits (Aspergillus fumigatus)
Test: SPR

B1: A. fumigatus HapX^24–158 bZIP peptide (covering the CBC-binding domain, basic region, and coiled-coil domain) (domain or fragment)
chain: SPSPGPGTPGSITSKEWVIPPRPKPGRKPATDTPPTKRKAQNRAAQRAFRERRAARVNELEEQIKKIEDEHEIHIAAFKEQITNLSREVEQCRSEMTWWRDRCHALEKEVSVERSAKEAIVKEFRSSLSDREAVR
- Kd: 1.01 nM
